# Experimental data taken from paper PMC2720809 (Nature, 2009).
# Columns and labels:
# [1] = target: ΔzfP2X4-A (zebrafish P2X4.1 receptor with amino- and carboxyl-terminal deletions) (zebrafish) (UniProt F8W463); assay: crystal structure
# [2] = target: ΔzfP2X4-B (ΔzfP2X4-A with C51F/N78K/N187R) (zebrafish) (UniProt F8W463); assay: crystal structure
# [3] = target: T1, zebrafish P2X4.1 receptor (zfP2X4) (Danio rerio, UniProt F8W463); assay: whole-cell patch clamp of transfected tsA201 cells; type: cell-based
# T1 sequence (F8W463 1-389): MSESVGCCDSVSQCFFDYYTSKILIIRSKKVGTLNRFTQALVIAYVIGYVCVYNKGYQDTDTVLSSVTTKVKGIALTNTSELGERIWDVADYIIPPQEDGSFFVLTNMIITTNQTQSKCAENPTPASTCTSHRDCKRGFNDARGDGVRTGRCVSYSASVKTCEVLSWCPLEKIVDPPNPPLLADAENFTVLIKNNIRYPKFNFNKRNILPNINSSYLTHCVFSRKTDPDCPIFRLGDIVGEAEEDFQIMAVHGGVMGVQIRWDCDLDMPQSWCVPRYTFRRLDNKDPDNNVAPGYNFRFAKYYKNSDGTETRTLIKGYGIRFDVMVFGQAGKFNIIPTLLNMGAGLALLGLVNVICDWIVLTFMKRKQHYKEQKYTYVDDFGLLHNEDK
compound,measurement,setting,value
ΔzfP2X4-A (zebrafish P2X4.1 receptor with amino- and carboxyl-terminal deletions) (from UniProt F8W463 1-389),stoichiometry N,[1],3
ΔzfP2X4-B (ΔzfP2X4-A with C51F/N78K/N187R) (from UniProt F8W463 1-389) (receptor),stoichiometry N,[2],3
Nc1ncnc2c1ncn2[C@@H]1O[C@H](COP(=O)(O)OP(=O)(O)OP(=O)(O)O)[C@@H](O)[C@H]1O [ATP],EC50,[3],~800 µM
